Results on one molecule are retold here after paper doi:10.1101/2024.05.08.592267 (2024).

This test addresses P69P4. Description: BLI.

B1: biotinylated natural Ara h 2 (natural protein)
chain: RQQWELQGDRRCQSQLERANLRPCEQHLMQKIQRDEDSYGRDPYSPSQDPYSPSQDPDRRDPYSPSPYDRRGAGSSQHQERCCNELNEFENNQRCMCEALQQIMENQSDRLQGRQQEQQFKRELRNLPQQCGLRAPQRCDLEVESGGRDRY
modifications: biotin (position not given)
B1 came in with a Kd of 3.88 pM.
